Measured values published in patent US20140303084A1 (Biogen, published 2014).
Square brackets hold non-standard residues; d marks the D form. Ends that are not written are not given here. NMeY = CN[C@@H](Cc1ccc(O)cc1)C(=O)O; NMeL = CN[C@@H](CC(C)C)C(=O)O

B1: SKQGRPISSDrRAAGKSTCLASYCWLFWTGIA (peptide)
peptide: SKQGRPISSD[dR]RAAGKSTCLASYCWLFWTGIA
modifications: not fully specified; printed as SKQGRPISSDrRAAGKSTCLASYCWLFWTGIA; cysteine pairing not given here
B2: SKQGRPISPDrRAAGKLTCLaSYCWLFWTGIA (peptide)
peptide: SKQGRPISPD[dR]RAAGKLTCL[dA]SYCWLFWTGIA
modifications: not fully specified; printed as SKQGRPISPDrRAAGKLTCLaSYCWLFWTGIA; cysteine pairing not given here
B3: SKQGRPISSDrRASGKSTCLASYCWLFWTGIA (peptide)
peptide: SKQGRPISSD[dR]RASGKSTCLASYCWLFWTGIA
modifications: not fully specified; printed as SKQGRPISSDrRASGKSTCLASYCWLFWTGIA; cysteine pairing not given here
B4: SKQGRPISSDrRASGKLTCLASYCWLFWTGIA (peptide)
peptide: SKQGRPISSD[dR]RASGKLTCLASYCWLFWTGIA
modifications: not fully specified; printed as SKQGRPISSDrRASGKLTCLASYCWLFWTGIA; cysteine pairing not given here
B5: SKQGRPISSDrRAAGKLTCLASYCWLFWTGIA (peptide)
peptide: SKQGRPISSD[dR]RAAGKLTCLASYCWLFWTGIA
modifications: not fully specified; printed as SKQGRPISSDrRAAGKLTCLASYCWLFWTGIA; cysteine pairing not given here

The binders below were run against human Factor IXa (human, UniProt P00740 47-191; P00740 227-461) (assay: cell-based or functional assay).
RRAPGKLTCLASYCWLFLTGWARVPLPPRPHP [RRAPGKLTCLASYCWLF LTGWA RVPLPPRPHP] was tested, and the “EC50 [µM], FXa generation assay” value was over 1 µM.
In the case of PARGKERELMRRAPGKLTCLASYCWLFWTGIA [PARGKERELM RRAPG KLTCLASYCWLFWTGIA], the “EC50 [µM], FXa generation assay” value is reported as over 1 µM.
In the case of PNLLRVRTSEVRNPGKLTCLASYCWLFWTGIA [PNLLRVRTSE VRNPG KLTCLASYCWLFWTGIA], the “EC50 [µM], FXa generation assay” value is reported as under 0.5 µM.
For LYTAWIKCQFARLPGCALSGRW-NH2 (cysteine pairing not given here) [compound C], the “EC50 [µM], FXa generation assay with hFIXa” value was over 25 µM.
SKQGRPISPDRRAAGKLTCLASYCWLFGSGISLSRAPESAAP was tested, and the “EC50 [µM], FXa generation assay” value was over 10 µM.
With B1 the “EC50 [µM], FXa generation assay” value was under 0.5 µM.
With RRAPGKLTCLASYACLFWTGIA-NH2 (cysteine pairing not given here) [RRAPGKLTCLASYACLFWTGIA-CONH2] the “EC50 [µM], FXa generation assay” value was over 1 µM.
For RRAPGKLTCLASYAWLCWTGIA-OH (cysteine pairing not given here) [RRAPGKLTCLASYAWLCWTGIA-COOH], the “EC50 [µM], FXa generation assay” value was over 10 µM.
In the case of RRAPGKLTCLASYCWLFWSGIAPQPPNMRPSV [RRAPGKLTCLASYCWLF WSGIA PQPPNMRPSV], the “EC50 [µM], FXa generation assay” value is reported as under 0.5 µM.
RRAPGKLTCLASYCWLFWTGLLDYPTPQSHEP [RRAPGKLTCLASYCWLF WTGLL DYPTPQSHEP] was tested, and the “EC50 [µM], FXa generation assay” value was under 0.5 µM.
For B2, the “EC50 [µM], FXa generation assay” value was over 10 µM.
In the case of SKQGRPISPD[dR]RAAGKLTCLAS[NMeY]CWLFWTGIA (not fully specified; cysteine pairing not given here) [SKQGRPISPDrRAAGKLTCLAS-NMeTyr-CWLFWTGIA], the “EC50 [µM], FXa generation assay” value is reported as over 10 µM.
RRAPGKCTALASYAWCFWTGIA-OH (cysteine pairing not given here) [RRAPGKCTALASYAWCFWTGIA-COOH] was tested, and the “EC50 [µM], FXa generation assay” value was over 1 µM.
For RRAPGKLTCLASYAWCFWTGIA-NH2 (cysteine pairing not given here) [RRAPGKLTCLASYAWCFWTGIA-CONH2], the “EC50 [µM], FXa generation assay” value was over 20 µM.
With B3 the “EC50 [µM], FXa generation assay” value was under 0.5 µM.
In the case of RRAPGKLCALASYCWLFWTGIA-OH (cysteine pairing not given here) [RRAPGKLCALASYCWLFWTGIA-COOH], the “EC50 [µM], FXa generation assay” value is reported as over 1 µM.
For RRAPGKLTCLASYCWLFWTGIARWPSHRSGPS (not fully specified (C-terminus); cysteine pairing not given here) [RRAPGKLTCLASYCWLF WTGIA RWPSHRSGPS], the “EC50 [µM], FXa generation assay” value was over 1 µM.
For RRAPGKCTALASYCWLFWTGIA-NH2 (cysteine pairing not given here) [RRAPGKCTALASYCWLFWTGIA-CONH2], the “EC50 [µM], FXa generation assay” value was over 1 µM.
For RRAPGKLTCLASYCWLFWTTWTTAPTTPPLTT [RRAPGKLTCLASYCWLF WTTWT TAPTTPPLTT], the “EC50 [µM], FXa generation assay” value was under 0.5 µM.
RRAPGCLTALASYCWLFWTGIA-OH (cysteine pairing not given here) [RRAPGCLTALASYCWLFWTGIA-COOH] was tested, and the “EC50 [µM], FXa generation assay” value was over 1 µM.
In the case of NGALGFRSVVPRAAGKLTCLASYCWLFWTGIA [NGALGFRSVV PRAAG KLTCLASYCWLFWTGIA], the “EC50 [µM], FXa generation assay” value is reported as under 0.5 µM.
With RRAPGKLCALASYCWLFWTGIA-NH2 (cysteine pairing not given here) [RRAPGKLCALASYCWLFWTGIA-CONH2] the “EC50 [µM], FXa generation assay” value was over 1 µM.
For RRAPGKLTCLASYAWLCWTGIA-NH2 (cysteine pairing not given here) [RRAPGKLTCLASYAWLCWTGIA-CONH2], the “EC50 [µM], FXa generation assay” value was over 10 µM.
For GRAMAAEPWPRQAPGKLTCLASYCWLFWTGIA [GRAMAAEPWP RQAPG KLTCLASYCWLFWTGIA], the “EC50 [µM], FXa generation assay” value was under 0.5 µM.
In the case of RRAPGCLTALASYCWLFWTGIA-NH2 (cysteine pairing not given here) [RRAPGCLTALASYCWLFWTGIA-CONH2], the “EC50 [µM], FXa generation assay” value is reported as over 1 µM.
For RRAPGKLTCLASYAWCFWTGIA-OH (cysteine pairing not given here) [RRAPGKLTCLASYAWCFWTGIA-COOH], the “EC50 [µM], FXa generation assay” value was over 1 µM.
In the case of PRTTANRRSSRRAPAKLTCLASYCWLFWTGIA [PRTTANRRSS RRAPA KLTCLASYCWLFWTGIA], the “EC50 [µM], FXa generation assay” value is reported as under 0.5 µM.
With RRAPGKLTCLASYCWLFWAVIAPPKVKGTRQS [RRAPGKLTCLASYCWLF WAVIA PPKVKGTRQS] the “EC50 [µM], FXa generation assay” value was over 1 µM.
With SLISMTNPSGRRVPGKLTCLASYCWLFWTGIA [SLISMTNPSG RRVPG KLTCLASYCWLFWTGIA] the “EC50 [µM], FXa generation assay” value was under 0.5 µM.
In the case of RRAPGKLTCLASYCWLFATGVTFPQIWAIPSP [RRAPGKLTCLASYCWLF ATGVT FPQIWAIPSP], the “EC50 [µM], FXa generation assay” value is reported as over 1 µM.
RRAPGKLTCLASYCWLFWAGIAPHRPLKERVR [RRAPGKLTCLASYCWLF WAGIA PHRPLKERVR] was tested, and the “EC50 [µM], FXa generation assay” value was over 1 µM.
In the case of B4, the “EC50 [µM], FXa generation assay” value is reported as under 0.5 µM.
In the case of RRAPGKLCALASYACLFWTGIA-OH (cysteine pairing not given here) [RRAPGKLCALASYACLFWTGIA-COOH], the “EC50 [µM], FXa generation assay” value is reported as over 10 µM.
RRAPGKLTCLASYCWLFWTAVGGQPYMLLAWR [RRAPGKLTCLASYCWLF WTAVG GQPYMLLAWR] was tested, and the “EC50 [µM], FXa generation assay” value was under 0.5 µM.
With RRAPGCLTALASYAWLCWTGIA-OH (cysteine pairing not given here) [RRAPGCLTALASYAWLCWTGIA-COOH] the “EC50 [µM], FXa generation assay” value was over 20 µM.
With RRAPGKLCALASYACLFWTGIA-NH2 (cysteine pairing not given here) [RRAPGKLCALASYACLFWTGIA-CONH2] the “EC50 [µM], FXa generation assay” value was over 10 µM.
In the case of RPRSSAHDRPRRAAGKLTCLASYCWLFWTGIA [RPRSSAHDRP RRAAG KLTCLASYCWLFWTGIA], the “EC50 [µM], FXa generation assay” value is reported as over 1 µM.
In the case of RRAPGKLTCLASYCWLFWTTYASYATKPADTT [RRAPGKLTCLASYCWLF WTTYA SYATKPADTT], the “EC50 [µM], FXa generation assay” value is reported as under 0.5 µM.
For PQTRDPSSRDRRAPGKLTCLASYCWLFWTGIA [PQTRDPSSRD RRAPG KLTCLASYCWLFWTGIA], the “EC50 [µM], FXa generation assay” value was under 0.5 µM.
In the case of SKQGRPISPD[dR]RAAGKLTCLASYCW[NMeL]FWTGIA (not fully specified; cysteine pairing not given here) [SKQGRPISPDrRAAGKLTCLASYCW-NMeLeu-FWTGIA], the “EC50 [µM], FXa generation assay” value is reported as over 10 µM.
In the case of RRAPGKLTCLASYCWLFVTGTAHAPRVAPAPA [RRAPGKLTCLASYCWLF VTGTA HAPRVAPAPA], the “EC50 [µM], FXa generation assay” value is reported as over 1 µM.
RRAPGKCTALASYCWLFWTGIA-OH (cysteine pairing not given here) [RRAPGKCTALASYCWLFWTGIA-COOH] was tested, and the “EC50 [µM], FXa generation assay” value was over 1 µM.
With TALSRGLVTMRTAPDKLTCLASYCWLFWTGIA [TALSRGLVTM RTAPD KLTCLASYCWLFWTGIA] the “EC50 [µM], FXa generation assay” value was under 0.5 µM.
For AQWVGRGQWAIRAPGKLTCLASYCWLFWTGIA [AQWVGRGQWA IRAPG KLTCLASYCWLFWTGIA], the “EC50 [µM], FXa generation assay” value was over 1 µM.
RRAPGKLTCLASYCWLFYTGIAHGHPMEHRKS [RRAPGKLTCLASYCWLF YTGIA HGHPMEHRKS] was tested, and the “EC50 [µM], FXa generation assay” value was over 1 µM.
For B5, the “EC50 [µM], FXa generation assay” value was under 0.5 µM.
